Data: the nanobody polyreactivity screen of Harvey et al. (2022)

Test: yeast display, Sf9 membrane polyspecificity reagent, FACS + sequencing; frameworks hold sequencing errors
Outline: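 Galactose induction of a Saccharomyces cerevisiae BJ5465 synthetic nanobody display library ran 36–48 hours. The cells were then stained for 1 hour at 4 °C with 10% biotinylated, detergent-solubilized Sf9 membrane reagent, pulled down on streptavidin microbeads and FACS-sorted into low and high (top ~1%) gates on expression and reagent-binding fluorescence. Labels for polyreactivity follow the gate of origin.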

| Sequence | polyreactivity (PSR sort gate) |
| --- | --- |
| QVQLVESGGGLVQAGGSLRLSCAASGSTFRVYAMGWYRQAPRKERELVAAISKSGVSTYYADSVKGRFTISRDNAMNTVYLQMNSLKPEDTAVYYCPVFLGYSRKYDYWGQGTQVTVSS | high polyreactivity |
| QVQLVESGGGLVKAGGSLRLSCAASGRICSSYAMGWYRQAPGKERELVAAISRGGGRTYYADSVKGRFTNSRDNAKNTVYLQMNSLKPEDTAGYYCAAGRRYASEMDYWGLGTQVTVSS | high polyreactivity |
| QVQLVESGGGLVQAGVSLSLSCADSGSFSDFYAMGWYRQAPGKERELVAAITSSGGSTYYADSVKGRFTISREIAKNTGYLQMNSLKPEDTAVYYCNRYSNLGYNYWGQGTQVSVSS | high polyreactivity |
| QAQLQESGGSLVQAGGRLRLSCAASGYISVGSVMGWYRQAPSKERELVASIDQVANTNYADSVKGRFTISRDNAKNNVYLQMNSLKPEDTAVYYCATETTYILNYWGQVTQVTVSS | low polyreactivity |
| QVQLVESGVGLVQAGGSLRLTCAASGITFLYNAMGSYRQAPGKERELVAVITRGGITNYADSVKGRFTISRDNAKNTDSLQMYRLNPEDTAVYDWAAYRGIYSRYDYWGQGTQVNVSS | high polyreactivity |
| QVQLVESGGGLVHAGGSLRLSCAASGGIFYVNAMGWYRQAPGKERELVADIRYSGTSTYYADSVKGRFTISRDNAKNTVYLQMNSLKPEDTAVYYCAVDAWDTTHVYEQGAERDSWGQGTQVTVSS | low polyreactivity |
| QVQLVESGGGLVQAGGSLRLSCAASGFTIIRYAMGWYRQAPGKERDLVAAITTSGSGTYYAHSVKGRFTISRDNAKNTVYLQMNSLKPEDTAVDYCATDYRYRSYSRGAHDYWGQGTQVTVSS | low polyreactivity |
| QVQLLESGGGLVQAGGSLRLSCAASGIIFCEYAMGWYTQAPGKERELVATITSGDSTNYADSVKGRFTISRDNAKNTVYLQMNSLKPEDTAVYYCIADYAFLPSYDYWGQGTQVTVSS | low polyreactivity |
| QVQLVESGGGLVQAGGSLRLSCAASGNSFREYTMGWCRQAPGKERELVAGISGSGGRTYYADSVKGRFTISRDNAKNTVFLQMNSLKPEDTAVYYCNDRWYYGIGYNYWGQGTQVTVSS | high polyreactivity |
| QVQLVESGGGLVHAGGSLRLSCAASGFILYSYAMGWYRQAPGKERELVAAINSTGSTYYADSVKGRFTISRDNAKNTVYLQMNSLKPEDTAFYYCATDPWYQTDLSYDTPYYYWGQGKQVTVSS | low polyreactivity |
| QVQLVESGGGLVQAGGSLRLSCAASGRIFYTYAMGWYRQAPGKERELVAAISSRTGSTYYADSVKGRFTISRDNAKNTVYLQMNSLKPEDTAVYYCNAYRLRYGYDYWGQGTQVTVSS | high polyreactivity |
| QVQLVESGGGLVQAGGSLRLSCAASGFIFYHNAMGWYRQAPGKERELVAAISYSGGSTYYADSVKGRFTISRVNAKNTVYLQMNSLKPEDTAVYFCATPQTRTYDYWGQGTQVTVSS | high polyreactivity |
| QVQLVESGGGLVQAGGSLRLSCAASGSIFYYYAMGWYRPAPGKERELVAAINSSGGNTYYADSVKGRFTISRDNAKNTVYLQMNSLKPEDTAVYYCAAASRSTNYNYWGQGTQVTVSS | high polyreactivity |
| QVQLVESGGGLVQAGGSLRLSCAASGRIFKSNAMGWYRQAPGKEWELVASISRSGSTNYADSVKGRFTISRDNAKNTVYLQMNSLKPEDTAVYYCAKDPDAKGGGYDYWGQGTQVTVSS | low polyreactivity |
| QVQLVESGGGLVQAGGSLRLSCAASGLIFYAKAMGWYRQAPGKEREFVAAITYRGGSTYYADSVKGRFTISRDKAKNTVYLQMNCLKPEATAVYYCATVTDRYPYIRRYHFPYYYWGQGTQVTVSS | high polyreactivity |
| QVQLVESGGGLVQAVGSLRLSCAASGRIFRYYAMGWYRQATGKESELVAAISDSSGYTYYADSVKGRFTISRDNAKNTVYLQMISLKPEDTAVYYCRDYLGSGYYYWGQGTQVTVSS | high polyreactivity |
| QVKLVESGGGLVQAGGSIRLSCAASGSTFATYAMGCYRQAPGKERELVAAITSGGSTDYADSVKGRFTISRDNAKNTVYLQMNSQKPEDTAVYYCNATWVLLSYYYLFWCYDYWGQGTQVTVSS | low polyreactivity |
